Reference: patent US20180037645A1 (Bristol-Myers Squibb, published 2018)
Changes are numbered by the printed parent chain.

B1: IL-23 alanine shave mutant M5 (ligand, human)
chain 1: RAVPGGSSPAWTQCQQLSQKLCTLAWSAHPLVGAADLREEGDEETTNDVPHIQCGDGCDPQGLRDNSQFCLQRIHQGLIFYEKLLGSDIFTGAPSLAPASPVGQLHASLLGLSQLLQPEGHHWETQQIPSLSPSQPWQRLLLRFKILRSLQAFVAVAARVFAHGAATLSP
chain 2: IWELKKDVYVVELDWYPDAPGEMVVLTCDTPEEDGITWTLDQSSEVLGSGKTLTIQVKEFGDAGQYTCHKGGEVLSHSLLLLHKKEDGIWSTDILKDQKEPKNKTFLRCEAKNYSGRFTCWWLTTISTDLTFSVKSSRGSSDPQGVTCGAATLSAERVRGDNKEYEYSVECQEDSACPAAEESLPIEVMVDAVHKLKYENYTSSFFIRDIIKPDPPKNLQLKPLKNSRQVEVSWEYPDTWSTPHSYFSLTFCVQVQGKSKREKKDRVFTDKTSATVICRKNASISVRAQDRYYSSSWSEWASVPCS
B2: IL-23 alanine shave mutant M10 (ligand, human)
chain 1: B1 chain 1 with D36A, A93E, A97L, A99D, F144A
chain 2: B1 chain 2
B3: IL-23 alanine shave mutant M7 (ligand, human)
chain 1: B1 chain 1 with A34H, A35M, A93E, A97L, A99D, W123A, E124A, T125A, Q126A, Q127A
chain 2: B1 chain 2
B4: IL-23 alanine shave mutant M9 (ligand, human)
chain 1: B1 chain 1 with A34H, A35M, A93E, Q104A
chain 2: B1 chain 2

Each binder was assayed against human IL-23Rα / human IL-12Rβ1 on BaF3 transfectants (human, UniProt Q5VWK5 24-629; P42701 24-662) (assay: cell-based or functional assay).
Chain of human IL-23Rα / human IL-12Rβ1 on BaF3 transfectants (Q5VWK5 24-629, chain 1 of 2, other chains not shown): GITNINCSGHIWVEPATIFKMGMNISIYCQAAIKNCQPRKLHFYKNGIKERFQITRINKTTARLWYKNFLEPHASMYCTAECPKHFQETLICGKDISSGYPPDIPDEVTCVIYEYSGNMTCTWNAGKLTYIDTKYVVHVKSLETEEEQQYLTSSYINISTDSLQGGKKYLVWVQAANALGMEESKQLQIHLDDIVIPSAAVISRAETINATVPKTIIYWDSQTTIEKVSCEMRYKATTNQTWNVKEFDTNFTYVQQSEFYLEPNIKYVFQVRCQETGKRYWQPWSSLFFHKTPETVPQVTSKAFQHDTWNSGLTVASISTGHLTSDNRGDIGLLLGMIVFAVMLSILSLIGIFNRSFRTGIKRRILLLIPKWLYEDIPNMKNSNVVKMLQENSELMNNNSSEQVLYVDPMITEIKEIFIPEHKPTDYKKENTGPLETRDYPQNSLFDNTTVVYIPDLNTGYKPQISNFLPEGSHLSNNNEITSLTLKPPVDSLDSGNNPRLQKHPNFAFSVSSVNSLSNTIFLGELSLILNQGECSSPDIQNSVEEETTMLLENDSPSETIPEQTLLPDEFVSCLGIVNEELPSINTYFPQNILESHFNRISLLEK

| EC50, pSTAT3 in BaF3/huIL-23Rα/huIL-12Rβ1 transfectants [pM] | Binder |
| --- | --- |
| 26 | B1 |
| 19 | B2 |
| 21 | B3 |
| 33 | B4 |
